The values below come from article PMC4454188.

As usually defined, the stoichiometry N is a count of units in the complex or per binding partner.

For test [1], the target named is DotIC, C-terminal periplasmic domain of DotI (residues 73-212) (L. pneumophila). Put plainly: crystal structure.
For test [2] the target is unchanged. Put plainly: SEC-MALS. (In general: Size exclusion chromatography separates by hydrodynamic size, large species first.)
In test [3] the target is His-TraM (R64 TraM, full length) (plasmid R64). The experiment in a line: SEC-MALS.
In test [4] the target is Strep-3xFLAG-DotJ (E. coli) (L. pneumophila). Put plainly: SEC.

With “DotIC, C-terminal periplasmic domain of DotI (residues 73-212) (domain or fragment)”, the stoichiometry N (subunits in a ring (two rings stacked)) in test [1] was 8. Besides, the stoichiometry N in test [2] turned out to be 16.
With “His-TraM (R64 TraM, full length) (natural protein)”, the stoichiometry N in test [3] was 6.
“DotI (produced in E. coli with Strep-3xFLAG-DotJ) (natural protein)” gave a stoichiometry N (DotI per DotJ) in test [4] of 1.87.
